Changes are numbered by the printed parent chain. Names may count otherwise.
B1: intein-CBD-tagged WAC-CT (WAC residues 570–647) (domain or fragment)
chain: HVQGWPADHAEKQASRLREEAHNMGTIHMSEICTELKNLRSLVRVCEIQATLREQRILFLRQQIKELEKLKNQNSFMV
B2: intein-WAC S4 (R630E) (domain or fragment)
chain: B1 chain with R61E

Assays:
[1] = biological target: RNF-MD S5i (E766K in RNF20 and K57E/R804E in RNF40) (human) (UniProt Q5VTR2); assay: SPR; RNF-MD immobilised on a CM5 chip, intein-WAC flown over; Biacore 8K, 25°C, 20 mM HEPES (pH 7.5), 200 mM sodium chloride, 0.02% Tween 20
[2] = biological target: RNF-MD S4i (D780K in RNF20) (human) (UniProt Q5VTR2); assay: as above

Binder	Kd [1] [nM]	koff [1] [s⁻¹]	kon [1] [M⁻¹ s⁻¹]	Kd [2] [nM]	koff [2] [s⁻¹]	kon [2] [M⁻¹ s⁻¹]
B1	464	0.0142	30500	–	–	–
B2	–	–	–	249	0.0435	17500

Source: publication PMC12802937
